B1: human wild-type MG53 (protein)
chain: MSAAPGLLHQELSCPLCLQLFDAPVTAECGHSFCRACLGRVAGEPAADGTVLCPCCQAPTRPQALSTNLQLARLVEGLAQVPQGHCEEHLDPLSIYCEQDRALVCGVCASLGSHRGHRLLPAAEAHARLKTQLPQQKLQLQEACMRKEKSVAVLEHQLVEVEETVRQFRGAVGEQLGKMRVFLAALEGSLDREAERVRGEAGVALRRELGSLNSYLEQLRQMEKVLEEVADKPQTEFLMKYCLVTSRLQKILAESPPPARLDIQLPIISDDFKFQVWRKMFRALMPALEELTFDPSSAHPSLVVSSSGRRVECSEQKAPPAGEDPRQFDKAVAVVAHQQLSEGEHYWEVDVGDKPRWALGVIAAEAPRRGRLHAVPSQGLWLLGLREGKILEAHVEAKEPRALRSPERRPTRIGLYLSFGDGVLSFYDASDADALVPLFAFHERLPRPVYPFFDVCWHDKGKNAQPLLLVGPEGAEA
B2: human MG53 S255A mutant (protein)
chain: MSAAPGLLHQELSCPLCLQLFDAPVTAECGHSFCRACLGRVAGEPAADGTVLCPCCQAPTRPQALSTNLQLARLVEGLAQVPQGHCEEHLDPLSIYCEQDRALVCGVCASLGSHRGHRLLPAAEAHARLKTQLPQQKLQLQEACMRKEKSVAVLEHQLVEVEETVRQFRGAVGEQLGKMRVFLAALEGSLDREAERVRGEAGVALRRELGSLNSYLEQLRQMEKVLEEVADKPQTEFLMKYCLVTSRLQKILAEAPPPARLDIQLPIISDDFKFQVWRKMFRALMPALEELTFDPSSAHPSLVVSSSGRRVECSEQKAPPAGEDPRQFDKAVAVVAHQQLSEGEHYWEVDVGDKPRWALGVIAAEAPRRGRLHAVPSQGLWLLGLREGKILEAHVEAKEPRALRSPERRPTRIGLYLSFGDGVLSFYDASDADALVPLFAFHERLPRPVYPFFDVCWHDKGKNAQPLLLVGPEGAEA
B3: mouse MG53 S255A mutant (protein)
chain: MSAAPGLLRQELSCPLCLQLFDAPVTAECGHSFCRACLIRVAGEPAADGTVACPCCQAPTRPQALSTNLQLSRLVEGLAQVPQGHCEEHLDPLSIYCEQDRTLVCGVCASLGSHRGHRLLPAAEAQARLKTQLPQQKMQLQEACMRKEKTVAVLEHQLVEVEETVRQFRGAVGEQLGKMRMFLAALESSLDREAERVRGDAGVALRRELSSLNSYLEQLRQMEKVLEEVADKPQTEFLMKFCLVTSRLQKILSEAPPPARLDIQLPVISDDFKFQVWKKMFRALMPALEELTFDPSSAHPSLVVSSSGRRVECSDQKAPPAGEDTRQFDKAVAVVAQQLLSQGEHYWEVEVGDKPRWALGVMAADASRRGRLHAVPSQGLWLLGLRDGKILEAHVEAKEPRALRTPERPPARIGLYLSFADGVLAFYDASNPDVLTPIFSFHERLPGPVYPIFDVCWHDKGKNAQPLLLVGPEQEQA
B4: mouse wild-type MG53 (protein)
chain: MSAAPGLLRQELSCPLCLQLFDAPVTAECGHSFCRACLIRVAGEPAADGTVACPCCQAPTRPQALSTNLQLSRLVEGLAQVPQGHCEEHLDPLSIYCEQDRTLVCGVCASLGSHRGHRLLPAAEAQARLKTQLPQQKMQLQEACMRKEKTVAVLEHQLVEVEETVRQFRGAVGEQLGKMRMFLAALESSLDREAERVRGDAGVALRRELSSLNSYLEQLRQMEKVLEEVADKPQTEFLMKFCLVTSRLQKILSESPPPARLDIQLPVISDDFKFQVWKKMFRALMPALEELTFDPSSAHPSLVVSSSGRRVECSDQKAPPAGEDTRQFDKAVAVVAQQLLSQGEHYWEVEVGDKPRWALGVMAADASRRGRLHAVPSQGLWLLGLRDGKILEAHVEAKEPRALRTPERPPARIGLYLSFADGVLAFYDASNPDVLTPIFSFHERLPGPVYPIFDVCWHDKGKNAQPLLLVGPEQEQA

What was measured:
[1] = target: IRS1 (insulin receptor substrate-1), species not stated
Chain of IRS1 (insulin receptor substrate-1), species not stated (P35568 whole entry): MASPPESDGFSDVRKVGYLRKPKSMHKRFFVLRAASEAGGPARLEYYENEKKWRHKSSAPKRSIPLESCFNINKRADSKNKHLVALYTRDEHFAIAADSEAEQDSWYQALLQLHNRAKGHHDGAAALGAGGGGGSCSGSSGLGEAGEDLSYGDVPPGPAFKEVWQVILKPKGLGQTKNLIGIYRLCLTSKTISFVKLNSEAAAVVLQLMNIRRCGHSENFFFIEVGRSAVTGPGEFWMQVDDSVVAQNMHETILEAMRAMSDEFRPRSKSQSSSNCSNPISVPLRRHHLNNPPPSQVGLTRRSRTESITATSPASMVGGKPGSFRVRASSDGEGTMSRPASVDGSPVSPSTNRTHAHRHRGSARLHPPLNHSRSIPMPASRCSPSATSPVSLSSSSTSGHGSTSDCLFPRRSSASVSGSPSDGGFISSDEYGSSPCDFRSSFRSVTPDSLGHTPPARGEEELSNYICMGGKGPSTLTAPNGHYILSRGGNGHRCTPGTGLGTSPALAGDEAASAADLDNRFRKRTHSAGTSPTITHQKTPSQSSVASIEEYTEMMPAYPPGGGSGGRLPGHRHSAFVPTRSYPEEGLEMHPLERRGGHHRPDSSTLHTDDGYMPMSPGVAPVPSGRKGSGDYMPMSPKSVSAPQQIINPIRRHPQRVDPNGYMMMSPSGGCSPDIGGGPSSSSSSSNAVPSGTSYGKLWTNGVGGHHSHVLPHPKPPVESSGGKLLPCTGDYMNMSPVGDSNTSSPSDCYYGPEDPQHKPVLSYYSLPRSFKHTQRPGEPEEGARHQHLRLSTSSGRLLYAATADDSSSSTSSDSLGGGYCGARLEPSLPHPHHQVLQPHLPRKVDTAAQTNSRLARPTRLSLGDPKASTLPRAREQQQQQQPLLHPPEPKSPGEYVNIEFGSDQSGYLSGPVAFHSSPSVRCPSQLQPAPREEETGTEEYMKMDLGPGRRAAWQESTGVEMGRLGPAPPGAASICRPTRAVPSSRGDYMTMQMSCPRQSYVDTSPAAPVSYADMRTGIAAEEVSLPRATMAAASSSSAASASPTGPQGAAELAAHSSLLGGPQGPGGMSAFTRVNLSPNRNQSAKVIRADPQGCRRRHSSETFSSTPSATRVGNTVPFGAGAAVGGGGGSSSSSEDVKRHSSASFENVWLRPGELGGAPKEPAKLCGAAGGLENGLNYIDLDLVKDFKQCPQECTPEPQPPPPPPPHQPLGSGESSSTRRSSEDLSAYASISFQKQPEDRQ

Row | Protein | degradation of IRβ, Western Blot, HEK293T co-expression (FIG. 16B) (insulin receptor IR) | degradation of precursor protein of IRβ, HEK293T co-expression (insulin receptor IR) | further results
1 | B1 | – | – | MG53-mediated substrate degradation, Western Blot, HEK293T co-expression (FIG. 17) [1]: human or mouse wild-type MG53 can significantly mediate IRS1 degradation
2 | B2 | – | – | degradation of IRS1, Western Blot, HEK293T co-expression (FIG. 17) [1]: human MG53 S255A mutant can only mediate about 10% degradation of IRS1
3 | B3 | mouse MG53-D-RING truncated mutant and mouse MG53 S255A mutant can hardly mediate IRβ degradation | mouse MG53-D-RING truncated mutant and mouse MG53 S255A mutant almost completely inhibited MG53-mediated degradation | degradation of IRS1, Western Blot, HEK293T co-expression (FIG. 16) [1]: mouse MG53 S255A mutant can only mediate about 40% degradation of IRS1
4 | B4 | Mouse wild-type MG53 can mediate about 50% degradation of IRβ | mouse wild-type MG53 can mediate the degradation of precursor protein of IRβ | MG53-mediated substrate degradation, Western Blot, HEK293T co-expression (FIG. 16) [1]: human or mouse wild-type MG53 can significantly mediate IRS1 degradation

From patent US20190153406
